Measurements from patent publication US12564600B2, “System for enhancing therapeutic compliance of the anti-cancer compound E7766” (Eisai R&D Management Co., Ltd., priority 2019, dated 2026).

Substrate: O=[P@]1(S)OC[C@H]2OC3[C@H](F)[C@@H]2O[P@](=O)(S)OC[C@H]2O[C@H]([C@H](F)[C@@H]2O1)n1cnc2c(ncnc21)NC/C=C/CNc1ncnc2c1ncn23
Assay: Uptake in HEK293 cells overexpressing OATP1B1
Format: in vitro ADME, human
Conditions: other: Simcyp input parameter, Table 3; 37.0 °C
Procedure: TransportoCells™ (Corning, N.Y., USA) expressing OATP2B1, NTCP, and HEK293-FT cells stably transfected with the vector containing OATP1B1 cDNA or OATP1B3 cDNA or empty vector were grown in a Dulbecoo's modified Eagle's medium fortified with 10% fetal calf serum and 2 mmol/L sodium butyrate (for NTCP only) in a humidified incubator at 37° C. and 5% CO2. Cells were harvested at 90% confluence and then seeded in poly-D-lysine-coated 24-well 24 h prior to transporter assay. Cells were washed twice and pre-incubated with 200 μL of pre-warmed Krebs-Henseleit buffer. After pre-incubation, cells were incubated with 3 or 10 μmol L-1 of Compound 1 in presence or absence of 100 μmol L-1 of inhibitors (Rifamycin SV for OATP2B1, Troglitazone for NTCP, Rifamycin for OATP1B1 and OATP1B3). The transport reaction was terminated by aspirating the buffer from the wells at designated time. After washing three times with 200 μL of ice-cold Krebs-Henseleit buffer, the cells were lysed and the resulting cellular lysates were analyzed by LC-MS/MS.
Concentration-dependent uptake of Compound 1 via OATP1B1 and OATP1B3 were conducted with a concentration range of 0.25-100 μmol L-1 under linear uptake. All experiments were run in triplicates.

B1: OATP1B1 (Homo sapiens) (protein)
chain: MDQNQHLNKTAEAQPSENKKTRYCNGLKMFLAALSLSFIAKTLGAIIMKSSIIHIERRFEISSSLVGFIDGSFEIGNLLVIVFVSYFGSKLHRPKLIGIGCFIMGIGGVLTALPHFFMGYYRYSKETNINSSENSTSTLSTCLINQILSLNRASPEIVGKGCLKESGSYMWIYVFMGNMLRGIGETPIVPLGLSYIDDFAKEGHSSLYLGILNAIAMIGPIIGFTLGSLFSKMYVDIGYVDLSTIRITPTDSRWVGAWWLNFLVSGLFSIISSIPFFFLPQTPNKPQKERKASLSLHVLETNDEKDQTANLTNQGKNITKNVTGFFQSFKSILTNPLYVMFVLLTLLQVSSYIGAFTYVFKYVEQQYGQPSSKANILLGVITIPIFASGMFLGGYIIKKFKLNTVGIAKFSCFTAVMSLSFYLLYFFILCENKSVAGLTMTYDGNNPVTSHRDVPLSYCNSDCNCDESQWEPVCGNNGITYISPCLAGCKSSSGNKKPIVFYNCSCLEVTGLQNRNYSAHLGECPRDDACTRKFYFFVAIQVLNLFFSALGGTSHVMLIVKIVQPELKSLALGFHSMVIRALGGILAPIYFGALIDTTCIKWSTNNCGTRGSCRTYNSTSFSRVYLGLSSMLRVSSLVLYIILIYAMKKKYQEKDINASENGSVMDEANLESLNKNKHFVPSAGADSETHC
notes: expressed in transfected cells; host or cells: HEK293-FT
  Km: 2.200 µM
